Experimental data: patent US20240400705A1 (SYNERGY IMT, published 2024)

Columns and labels:
[1] = target: T1, TROP2 on DLD1 colon cancer cells (UniProt P09758 27-323, limits assumed); assay: cell-based or functional assay
T1 sequence (looked up): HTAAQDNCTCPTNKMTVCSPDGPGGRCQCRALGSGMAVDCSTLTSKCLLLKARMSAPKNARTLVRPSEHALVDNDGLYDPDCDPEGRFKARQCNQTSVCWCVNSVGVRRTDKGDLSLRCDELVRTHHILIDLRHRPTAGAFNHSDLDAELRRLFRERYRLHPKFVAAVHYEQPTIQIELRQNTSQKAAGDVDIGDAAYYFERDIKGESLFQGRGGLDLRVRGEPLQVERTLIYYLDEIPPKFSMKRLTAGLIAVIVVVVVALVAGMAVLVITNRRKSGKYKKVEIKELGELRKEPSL

[2] = target: T1, TROP2 on DLD1 colon cancer cells; assay: flow cytofluorimetry on DLD1 colon tumor cells, 250 nM; bar = MFI, marker = percent positive; the molecule also carries a b2GP1 D5 domain for phosphatidylserine
Procedure: (§1) The binding of the multispecific recombinant antigen binding molecules to expanded T cells (FIG. 6D) and to the colon tumor cell line DLD1 (FIG. 6A) was determined by flow cytofluorimetry. Binding was conducted with a saturating concentration (250 nM). The T cells were expanded in culture from immunocult ([…] Technologies) stimulated peripheral blood mononuclear cells that were maintained in culture for at least 30 days. Multispecific recombinant antigen binding molecules were produced in HEK293 cells and one-step purified by FPLC using a HiTrap Protein A column. The expression of various T cell markers or tumor antigens was determined using commercial antibodies specific for Trop2, CD137, MICA/MICB, Tim4, Tim1 (all purchased from Biolegend). […] Greater levels of binding to DLD1 are associated with binding to PS and in particular bivalent binding to PS (e.g., 17v7-18v9).

[3] = target: CD137 on cells (CD137 reporter cell line, Promega; expanded T cells) (UniProt Q07011 24-255, limits assumed); assay: cell-based or functional assay
CD3 on T cells = target: T2, CD3 on T cells (UniProt P07766 23-207); assay: flow cytofluorimetry on expanded T cells, 250 nM; bar = MFI, marker = percent positive
T2 construct: whole, on cells; CD3 is a complex; also called T cell CD3
Procedure: as §1

[4] = target: T1, TROP2 on DLD1 colon cancer cells; assay: flow cytofluorimetry on DLD1 colon tumor cells, 250 nM; bar = MFI, marker = percent positive
Procedure: as §1

Sequence of CD137 on cells (CD137 reporter cell line, Promega; expanded T cells) (Q07011 24-255 limits assumed): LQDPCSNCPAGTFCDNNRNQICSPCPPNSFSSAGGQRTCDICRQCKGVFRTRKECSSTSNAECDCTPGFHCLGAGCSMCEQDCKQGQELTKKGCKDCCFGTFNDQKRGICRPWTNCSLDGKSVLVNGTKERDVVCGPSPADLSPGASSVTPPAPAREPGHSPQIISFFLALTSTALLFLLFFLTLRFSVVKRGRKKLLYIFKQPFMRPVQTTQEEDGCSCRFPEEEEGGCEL
T2 sequence (P07766 23-207): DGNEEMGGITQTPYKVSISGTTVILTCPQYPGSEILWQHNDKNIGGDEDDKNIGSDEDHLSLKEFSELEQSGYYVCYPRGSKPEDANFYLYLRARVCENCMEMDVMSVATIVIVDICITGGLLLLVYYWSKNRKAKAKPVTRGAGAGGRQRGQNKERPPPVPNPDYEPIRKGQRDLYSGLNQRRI

B1: TetrAx 17v17-18v23 (PS x Trop2 x CD3) (bispecific antibody)
light: DIQLTQSPSSLSASVGDRVSITCKASQDVSIAVAWYQQKPGKAPKLLIYSASYRTTGVPDRFSGSGSGTDFTLTISSLQPEDFAVYYCQQHYITPLTFGAGTKVEIKRTVAAPSVFIFPPSDEQLKSGTASVVCLLNNFYPREAKVQWKVDNALQSGNSQESVTEQDSKDSTYSLSSTLTLSKADYEKQKVYACEVTHQGLSSPVTKSFLRGECGGPAGGGGGTHTCPPCPAPEAAGGPSVFLFPPKPKDTLMISRTPEVTCVVVDVSHEDPEVKFNWYVDGVEVHNAKTKPREEQYNSTYRVVSVLTVLHQDWLNGKEYKCKVSNKALPAPIEKTISKAKGQPREPQVCTLPPSRDELTKNQVSLSCAVKGFYPSDIAVEWESNGQPENNYKTTPPVLDSDGSFFLVSKLTVDKSRWQQGNVFSCSVMHEALHNHYTQKSLSLSPGKGGGGGGASCKVPVKKATVVYQGERVKIQEKFKNGMLHGDKVSFFCKNKEKKCSYTEDAQCIDGTIEVPKCFKEHSSLAFWKTDASDVKPC
heavy: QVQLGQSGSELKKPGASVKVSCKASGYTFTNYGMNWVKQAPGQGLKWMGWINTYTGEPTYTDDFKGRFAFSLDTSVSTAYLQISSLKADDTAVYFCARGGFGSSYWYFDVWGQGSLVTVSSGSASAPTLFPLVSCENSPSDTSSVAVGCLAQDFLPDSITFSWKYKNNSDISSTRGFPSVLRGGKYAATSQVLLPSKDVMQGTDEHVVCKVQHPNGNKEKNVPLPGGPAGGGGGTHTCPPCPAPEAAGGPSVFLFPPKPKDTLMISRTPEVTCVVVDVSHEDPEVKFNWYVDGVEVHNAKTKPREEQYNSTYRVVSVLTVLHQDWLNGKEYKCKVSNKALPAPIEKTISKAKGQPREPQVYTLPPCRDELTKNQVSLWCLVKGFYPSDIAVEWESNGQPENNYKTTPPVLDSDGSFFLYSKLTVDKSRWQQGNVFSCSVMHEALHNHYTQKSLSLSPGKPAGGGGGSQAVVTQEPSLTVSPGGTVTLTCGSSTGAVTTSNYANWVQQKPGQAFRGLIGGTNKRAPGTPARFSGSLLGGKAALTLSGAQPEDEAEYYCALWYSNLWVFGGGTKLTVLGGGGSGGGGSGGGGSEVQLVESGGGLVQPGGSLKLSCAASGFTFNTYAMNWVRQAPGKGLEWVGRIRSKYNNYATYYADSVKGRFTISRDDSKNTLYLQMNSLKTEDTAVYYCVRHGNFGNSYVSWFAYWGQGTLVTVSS
B1 was tested, and the “DLD1 cytotoxicity EC50 (18 h, T cells)” value [1] was 0.5 pM and the “DLD1 cytotoxicity EC50 in a 3D tumor model (spheroids, T cells 2:1)” value [1] was 21 pM.

B2: 17v17-18v22 (bispecific antibody)
light chain 17v17: DIQLTQSPSSLSASVGDRVSITCKASQDVSIAVAWYQQKPGKAPKLLIYSASYRTTGVPDRFSGSGSGTDFTLTISSLQPEDFAVYYCQQHYITPLTFGAGTKVEIKRTVAAPSVFIFPPSDEQLKSGTASVVCLLNNFYPREAKVQWKVDNALQSGNSQESVTEQDSKDSTYSLSSTLTLSKADYEKQKVYACEVTHQGLSSPVTKSFLRGECGGPAGGGGGTHTCPPCPAPEAAGGPSVFLFPPKPKDTLMISRTPEVTCVVVDVSHEDPEVKFNWYVDGVEVHNAKTKPREEQYNSTYRVVSVLTVLHQDWLNGKEYKCKVSNKALPAPIEKTISKAKGQPREPQVCTLPPSRDELTKNQVSLSCAVKGFYPSDIAVEWESNGQPENNYKTTPPVLDSDGSFFLVSKLTVDKSRWQQGNVFSCSVMHEALHNHYTQKSLSLSPGKGGGGGGASCKVPVKKATVVYQGERVKIQEKFKNGMLHGDKVSFFCKNKEKKCSYTEDAQCIDGTIEVPKCFKEHSSLAFWKTDASDVKPC
heavy chain 18v22: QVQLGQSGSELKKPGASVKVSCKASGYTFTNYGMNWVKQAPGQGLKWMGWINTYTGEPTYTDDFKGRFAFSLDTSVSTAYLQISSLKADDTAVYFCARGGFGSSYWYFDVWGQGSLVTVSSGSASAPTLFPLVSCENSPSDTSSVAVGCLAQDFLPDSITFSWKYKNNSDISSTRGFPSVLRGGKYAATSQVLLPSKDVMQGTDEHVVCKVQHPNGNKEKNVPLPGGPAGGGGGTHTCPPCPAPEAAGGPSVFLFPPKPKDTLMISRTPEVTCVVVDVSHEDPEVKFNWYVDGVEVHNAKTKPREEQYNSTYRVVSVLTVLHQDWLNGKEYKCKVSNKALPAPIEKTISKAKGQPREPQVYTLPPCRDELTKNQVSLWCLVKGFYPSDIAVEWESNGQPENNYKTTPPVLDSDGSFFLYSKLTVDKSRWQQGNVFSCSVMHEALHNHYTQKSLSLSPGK
notes: also called TROP2 - PS (control)
B2: binds [2].

B3: TetrAx 20v8-18v26 (Trop2 x CD137, two CD137L domains) (bispecific antibody)
light: DIQLTQSPSSLSASVGDRVSITCKASQDVSIAVAWYQQKPGKAPKLLIYSASYRTTGVPDRFSGSGSGTDFTLTISSLQPEDFAVYYCQQHYITPLTFGAGTKVEIKRTVAAPSVFIFPPSDEQLKSGTASVVCLLNNFYPREAKVQWKVDNALQSGNSQESVTEQDSKDSTYSLSSTLTLSKADYEKQKVYACEVTHQGLSSPVTKSFLRGECGGPAGGGGGTHTCPPCPAPEAAGGPSVFLFPPKPKDTLMISRTPEVTCVVVDVSHEDPEVKFNWYVDGVEVHNAKTKPREEQYNSTYRVVSVLTVLHQDWLNGKEYKCKVSNKALPAPIEKTISKAKGQPREPQVCTLPPSRDELTKNQVSLSCAVKGFYPSDIAVEWESNGQPENNYKTTPPVLDSDGSFFLVSKLTVDKSRWQQGNVFSCSVMHEALHNHYTQKSLSLSPGKGGGGGGMFAQLVAQNVLLIDGPLSWYSDPGLAGVSLTGGLSYKEDTKELVVAKAGVYYVFFQLELRRVVAGEGSGSVSLALHLQPLRSAAGAAALALTVDLPPASSEARNSAFGFQGRLLHLSAGQRLGVHLHTEARARHAWQLTQGATVLGLFRVTP
heavy: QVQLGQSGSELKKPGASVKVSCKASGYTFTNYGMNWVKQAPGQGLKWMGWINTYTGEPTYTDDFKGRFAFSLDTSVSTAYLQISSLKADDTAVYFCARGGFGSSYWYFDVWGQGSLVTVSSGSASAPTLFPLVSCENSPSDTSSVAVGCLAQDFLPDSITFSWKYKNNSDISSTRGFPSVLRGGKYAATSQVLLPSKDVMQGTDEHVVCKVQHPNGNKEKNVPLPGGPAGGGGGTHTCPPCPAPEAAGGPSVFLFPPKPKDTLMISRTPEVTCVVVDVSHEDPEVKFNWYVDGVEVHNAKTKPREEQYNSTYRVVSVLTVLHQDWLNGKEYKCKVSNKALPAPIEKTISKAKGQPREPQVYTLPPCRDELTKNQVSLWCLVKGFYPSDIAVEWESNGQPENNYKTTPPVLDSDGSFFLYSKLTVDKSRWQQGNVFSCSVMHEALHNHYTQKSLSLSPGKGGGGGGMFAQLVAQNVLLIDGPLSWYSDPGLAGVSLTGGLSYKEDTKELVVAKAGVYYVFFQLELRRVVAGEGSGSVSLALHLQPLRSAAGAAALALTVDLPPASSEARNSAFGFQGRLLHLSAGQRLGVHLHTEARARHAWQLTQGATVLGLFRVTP
notes: also called dual CD137L TetrAx
For B3, the “CD137 signaling relative to the TetrAx with a single CD137L domain” value [3] was 3 fold, the “T cell DLD1 cytotoxicity EC50” value [3] was 300 pM and the binding result (CD3 on T cells) was “no binding (tested: 250 nM)”.

B4: TetrAx 20v8-18v22 (Trop2 x CD137, one CD137L domain) (bispecific antibody)
light: DIQLTQSPSSLSASVGDRVSITCKASQDVSIAVAWYQQKPGKAPKLLIYSASYRTTGVPDRFSGSGSGTDFTLTISSLQPEDFAVYYCQQHYITPLTFGAGTKVEIKRTVAAPSVFIFPPSDEQLKSGTASVVCLLNNFYPREAKVQWKVDNALQSGNSQESVTEQDSKDSTYSLSSTLTLSKADYEKQKVYACEVTHQGLSSPVTKSFLRGECGGPAGGGGGTHTCPPCPAPEAAGGPSVFLFPPKPKDTLMISRTPEVTCVVVDVSHEDPEVKFNWYVDGVEVHNAKTKPREEQYNSTYRVVSVLTVLHQDWLNGKEYKCKVSNKALPAPIEKTISKAKGQPREPQVCTLPPSRDELTKNQVSLSCAVKGFYPSDIAVEWESNGQPENNYKTTPPVLDSDGSFFLVSKLTVDKSRWQQGNVFSCSVMHEALHNHYTQKSLSLSPGKGGGGGGMFAQLVAQNVLLIDGPLSWYSDPGLAGVSLTGGLSYKEDTKELVVAKAGVYYVFFQLELRRVVAGEGSGSVSLALHLQPLRSAAGAAALALTVDLPPASSEARNSAFGFQGRLLHLSAGQRLGVHLHTEARARHAWQLTQGATVLGLFRVTP
heavy: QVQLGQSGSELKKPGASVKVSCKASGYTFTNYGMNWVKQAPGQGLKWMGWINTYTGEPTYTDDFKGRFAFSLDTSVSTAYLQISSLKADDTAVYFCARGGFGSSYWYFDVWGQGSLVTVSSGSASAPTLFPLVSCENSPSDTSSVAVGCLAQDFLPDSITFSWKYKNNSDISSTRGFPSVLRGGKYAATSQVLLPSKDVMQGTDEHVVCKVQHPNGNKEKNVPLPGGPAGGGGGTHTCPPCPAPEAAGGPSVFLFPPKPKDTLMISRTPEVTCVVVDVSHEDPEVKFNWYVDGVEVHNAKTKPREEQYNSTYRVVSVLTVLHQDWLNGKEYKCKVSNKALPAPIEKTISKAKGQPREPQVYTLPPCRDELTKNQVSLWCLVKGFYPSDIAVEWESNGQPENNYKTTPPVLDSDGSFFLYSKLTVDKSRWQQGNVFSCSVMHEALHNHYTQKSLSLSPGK
notes: CD137L domain is residues 90 to 242 (THD)
With B4 the “T cell DLD1 cytotoxicity” value [3] was 40 fold, the binding result [4] was “binds” and the binding result (CD3 on T cells) was “no binding (tested: 250 nM)”.

B5: TetrAx 17v9-18 (Trop2 x CD3) (bispecific antibody)
light: QAVVTQEPSLTVSPGGTVTLTCGSSTGAVTTSNYANWVQEKPGQAFRGLIGGTNKRAPGTPARFSGSLLGGKAALTLSGAQPEDEAEYYCALWYSNLWVFGCGTKLTVLRTVAAPSVFIFPPSDEQLKSGTASVVCLLNNFYPREAKVQWKVDNALQSGNSQESVTEQDSKDSTYSLSSTLTLSKADYEKHKVYACEVTHQGLSSPVTKSFNRGECGGPAGGGGGTHTCPPCPAPEAAGGPSVFLFPPKPKDTLMISRTPEVTCVVVDVSHEDPEVKFNWYVDGVEVHNAKTKPREEQYNSTYRVVSVLTVLHQDWLNGKEYKCKVSNKALPAPIEKTISKAKGQPREPQVCTLPPSRDELTKNQVSLSCAVKGFYPSDIAVEWESNGQPENNYKTTPPVLDSDGSFFLVSKLTVDKSRWQQGNVFSCSVMHEALHNHYTQKSLSLSPGKGGGGGGQVQLGQSGSELKKPGASVKVSCKASGYTFTSYAMNWVRQAPGQGLKWMGWINTYTGETPYTDDFKGRFAFSLDTSVSTAYLQISSLKADDTAVYFCARGGFGSSYWYFDVWGQGTLVTVSSGGGGSGGGGSGGGGSDIQLTQSPSSLSASVGDRVSITCKASQDVSIAVAWYQQKPGKAPKLLIYSASYRYTGVPDRFSGSGSGTDFTLTISSLQPEDFAVYYCQQHYITPLTFGAGTKVEIK
heavy: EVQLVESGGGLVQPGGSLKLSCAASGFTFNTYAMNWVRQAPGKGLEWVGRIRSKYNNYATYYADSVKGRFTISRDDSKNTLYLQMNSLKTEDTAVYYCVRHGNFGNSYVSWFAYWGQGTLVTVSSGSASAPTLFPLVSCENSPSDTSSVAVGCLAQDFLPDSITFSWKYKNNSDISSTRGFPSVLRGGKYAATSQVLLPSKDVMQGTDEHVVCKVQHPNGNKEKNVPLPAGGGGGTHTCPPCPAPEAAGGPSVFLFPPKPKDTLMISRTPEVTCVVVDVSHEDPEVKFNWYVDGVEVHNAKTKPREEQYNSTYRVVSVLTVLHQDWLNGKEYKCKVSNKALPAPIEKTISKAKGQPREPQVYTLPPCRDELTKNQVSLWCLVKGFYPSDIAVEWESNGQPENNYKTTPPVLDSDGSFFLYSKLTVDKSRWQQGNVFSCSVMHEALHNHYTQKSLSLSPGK
For B5, the “DLD1 cytotoxicity EC50 (18 h, T cells)” value [1] was about 3 pM.

B6: TetrAx 17v16-18v23 (Trop2 x CD3) (bispecific antibody)
light: DIQLTQSPSSLSASVGDRVSITCKASQDVSIAVAWYQQKPGKAPKLLIYSASYRTTGVPDRFSGSGSGTDFTLTISSLQPEDFAVYYCQQHYITPLTFGAGTKVEIKRTVAAPSVFIFPPSDEQLKSGTASVVCLLNNFYPREAKVQWKVDNALQSGNSQESVTEQDSKDSTYSLSSTLTLSKADYEKQKVYACEVTHQGLSSPVTKSFLRGECGGPAGGGGGTHTCPPCPAPEAAGGPSVFLFPPKPKDTLMISRTPEVTCVVVDVSHEDPEVKFNWYVDGVEVHNAKTKPREEQYNSTYRVVSVLTVLHQDWLNGKEYKCKVSNKALPAPIEKTISKAKGQPREPQVCTLPPSRDELTKNQVSLSCAVKGFYPSDIAVEWESNGQPENNYKTTPPVLDSDGSFFLVSKLTVDKSRWQQGNVFSCSVMHEALHNHYTQKSLSLSPGK
heavy: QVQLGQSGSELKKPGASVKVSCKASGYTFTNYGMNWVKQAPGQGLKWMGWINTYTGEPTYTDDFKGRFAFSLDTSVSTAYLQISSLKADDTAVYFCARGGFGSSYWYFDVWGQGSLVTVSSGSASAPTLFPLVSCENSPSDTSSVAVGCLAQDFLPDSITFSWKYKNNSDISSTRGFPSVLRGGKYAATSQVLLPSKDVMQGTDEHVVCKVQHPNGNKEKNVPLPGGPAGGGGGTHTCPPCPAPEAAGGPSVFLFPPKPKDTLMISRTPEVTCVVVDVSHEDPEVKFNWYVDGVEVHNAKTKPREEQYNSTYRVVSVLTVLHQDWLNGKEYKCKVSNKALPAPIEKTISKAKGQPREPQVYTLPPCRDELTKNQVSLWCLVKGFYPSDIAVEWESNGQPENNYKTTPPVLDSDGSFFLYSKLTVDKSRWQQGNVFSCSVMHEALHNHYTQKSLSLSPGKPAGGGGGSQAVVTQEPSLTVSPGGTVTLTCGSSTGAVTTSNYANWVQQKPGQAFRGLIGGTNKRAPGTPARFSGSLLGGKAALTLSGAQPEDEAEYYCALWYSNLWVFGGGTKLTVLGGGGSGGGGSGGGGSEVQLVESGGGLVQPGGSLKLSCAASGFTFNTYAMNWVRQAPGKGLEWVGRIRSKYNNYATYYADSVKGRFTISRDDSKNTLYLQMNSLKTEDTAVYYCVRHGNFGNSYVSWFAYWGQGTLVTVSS
In the case of B6, the “DLD1 cytotoxicity EC50 (18 h, T cells)” value [1] is reported as 8 pM.
